Test results from PMC11359509, “Anti-Skin Aging Potential, Antibacterial Activity, Inhibition of Single-Stranded DNA-Binding Protein, and Cytotoxic Effects of Acetone-Extracted Passiflora edulis (Tainung No. 1) Rind Extract on Oral”.

Molecular target: KpSSB (single-stranded DNA-binding protein) (Klebsiella pneumoniae, UniProt A6TGW7 1-174)
Experiment: EMSA; no extract; [Protein]50; 40 mM Tris-HCl pH 7.5, 50 mM NaCl, 37 °C, 60 min; 30 fmol/uL biotinylated ssDNA; 8% native PAGE in TBE
Details: protein: recombinant, tag not described, chain copies: 4

Sequence of KpSSB (single-stranded DNA-binding protein) (A6TGW7 whole entry): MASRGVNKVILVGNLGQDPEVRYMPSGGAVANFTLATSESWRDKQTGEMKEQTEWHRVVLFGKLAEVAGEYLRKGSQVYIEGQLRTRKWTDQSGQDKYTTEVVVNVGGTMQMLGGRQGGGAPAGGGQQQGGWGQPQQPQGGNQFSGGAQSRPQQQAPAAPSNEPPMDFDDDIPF

For TTTTTTTTTTTTTTTTTTTTTTTTTTTTTTTTTTT (ssDNA) [dT35], the “apparent K (half saturation)” value was 206 ± 14.3 nM.
